The record followed here is paper PMC6872946 (Growth factors (Chur, Switzerland), 2019).

The target of data set [1] is PDGF-C growth factor domain (human). Description: immunoblot after cleavage with matriptase. In general terms: A western blot detects proteins with antibodies after separation by electrophoresis.
Data set [2] deals with the molecule itself. The data set can be described thus: non-reducing SDS-PAGE and immunoblot.
Data set [3] deals with the molecule itself. Description: non-reducing SDS-PAGE and immunoblot. This is another data set of the same source.

Read-outs that look alike come from different tables or passages of the source.

For “PDGF-C growth factor domain (domain or fragment)”, the stoichiometry N (usually the number of molecules, sites or subunits per partner or assembly) in data set [1] was 2.

B1: truncated PDGF-C isoform with a C-terminal myc tag (t-PDGF-C-myc), in COS-1 cells (natural protein, human, UniProt Q9NRA1 164-345, looked up)
chain: MPQFTEAVSPSVLPPSALPLDLLNNAITAFSTLEDLIRYLEPERWQLDLEDLYRPTWQLLGKAFVFGRKSRVVDLNLLTEEVRLYSCTPRNFSVSIREELKRTDTIFWPGCLLVKRCGGNCACCLHNCNECQCVPSKVTKKYHEVLQLRPKTGVRGLHKSLTDVALEHHEECDCVCRGSTGG
Regarding B1, the “stoichiometry N” value in data set [2] is 2.

B2: truncated PDGF-C isoform with a myc tag (t-PDGF-C/myc), stably expressed in BT-549 cells (natural protein, human, UniProt Q9NRA1 164-345, looked up)
chain: B1 chain
On to B2, for which, in data set [3], the “stoichiometry N” value was 2.
